Our source for the binding values is publication PMC6412121.

This data set concerns the target TF-TDP-43-FL (UniProt Q13148). Put plainly: EMSA. The following applies: biotin-UTP incorporated in transcription; EMSA: 40 mM Tris-HCl pH 7.4, 30 mM KCl, 1 mM MgCl2, 0.01% IGEPAL CA-630, 1 mM DTT, 10 ug yeast tRNA, 10 ug BSA, 10 ng RNA, 200 ng protein in 10 ul, 25 C, 20 min.

Chain of TF-TDP-43-FL (Q13148 whole entry): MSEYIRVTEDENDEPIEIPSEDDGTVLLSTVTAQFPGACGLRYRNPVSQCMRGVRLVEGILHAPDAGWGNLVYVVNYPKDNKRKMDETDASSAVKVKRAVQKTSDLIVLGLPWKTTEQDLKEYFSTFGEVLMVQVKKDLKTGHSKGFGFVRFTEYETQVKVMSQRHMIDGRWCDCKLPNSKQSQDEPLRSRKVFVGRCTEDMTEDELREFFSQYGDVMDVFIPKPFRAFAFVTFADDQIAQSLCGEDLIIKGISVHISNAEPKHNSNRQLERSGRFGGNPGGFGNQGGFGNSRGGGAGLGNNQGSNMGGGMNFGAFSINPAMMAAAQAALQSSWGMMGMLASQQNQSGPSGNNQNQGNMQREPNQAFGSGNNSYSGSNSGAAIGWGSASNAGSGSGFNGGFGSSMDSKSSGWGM

For “GGGAGAGCAAAGUGAUGAGUAAUACUGGCUGGAGCCCCAAAGAGGCACGUGUGUGUGUUUGUGUGUGUGUGUAUAUGCUUGUCAGUGCAUGCACGUGUAUGUCUGGGAGUACAAAUGGGUGCGACUGGUUGUAGGGAACUAGCUAUGUGCCUUCUAUUAGGCCAUGACAGUCAAACUGAUAAGAUCUGAUUGC [scaRNA28]”, the binding entry is given as “binds”.
